From patent publication US8409836B2, “Treatment of cellulosic material and enzymes useful therein” (Roal Oy, priority 2005, dated 2013)

Assays:
[1] = Isoelectric focusing (PhastSystem), pI of purified protein; type: physicochemical; details: IEF gel
Protocol: The sample was dissolved in water and applied to a Superdex 75 HR 10/30 gel filtration column equilibrated with 20 mM sodium phosphate pH 6.0, containing 0.15 M NaCl. Fractions were collected and those containing endoglucanase activity were combined. The protein eluate was judged to be pure by SDS-polyacrylamide gel electrophoresis and the molecular mass was evaluated on the basis of molecular mass standards (prestained SDS-PAGE standards, Broad Range, Bio-Rad) to be 54 kDa. The pI of the purified protein, designated as Ct EG—54 was determined with PhastSystem (Pharmacia) to be ca 5.5.
The sample was applied to a Sephacryl S-100 HR 26/60 gel filtration column equilibrated with 50 mM sodium acetate buffer pH 5.0, containing 0.05 M NaCl. The protein fraction containing endoglucanase activity was eluted from the column with a retention volume corresponding to a molecular weight of 16 kDa. Collected fractions were combined, concentrated and gel filtration was repeated. The protein eluate was judged to be pure by SDS-polyacryl amide gel electrophoresis and the molecular weight was evaluated to be 28 kDa. The pI of the purified protein, designated as Ta EG—28, was determined in an IEF gel (PhastSystem, Pharmacia) to be about 3.5. The specific activity of Ta EG—28 at 50° C. was determined to be 4290 nkat/mg (procedure of IUPAC 1987, using CMC as substrate).
The active material from the anion exchange chromatography was applied to a Sephacryl S-300 HR 26/60 column equilibrated with 20 mM sodium phosphate pH 6.5, containing 0.15 M NaCl. The protein with β-glucosidase activity was eluted with a retention volume corresponding to a molecular weight of 243 kDa. The protein was judged to be pure by SDS-polyacrylamide gel electrophoresis and the molecular weight was evaluated to be 101 kDa. The pI of the purified protein, designated as At βG—101, was determined in an IEF gel (PhastSystem, Pharmacia) to be in the area of 5.6-4.9. The specific activity of At βG—101 at 50° C. was determined to be 1100 nkat/mg (using 4-nitrophenyl-β-D-glucopyranoside as substrate, Bailey and Linko, 1990).
The active material from the cation exchange chromatography was applied to a Sephacryl S-300 HR 26/60 column equilibrated with 20 mM sodium phosphate pH 7.0, containing 0.15 M NaCl. The protein with β-glucosidase activity was eluted with a retention volume corresponding to a molecular weight of 294 kDa. […] The protein was judged to be pure by SDS-polyacrylamide gel electrophoresis and the molecular weight was evaluated to be 81 kDa, representing most likely the monomeric form of the protein. […] The specific activity of the purified protein, designated as Ta βG—81, at 50° C. was determined to be 600 nkat/mg using 4-nitrophenyl-β-D-glucopyranoside as substrate (Bailey and Linko, 1990). […]

[2] = Temperature optimum of heterologously produced endoglucanases; type: biochemical; details: temperature range 50-85° C., CMC
Protocol: The pH optimum of the heterologously produced endoglucanases was determined in the universal McIlvaine's buffer within a pH range of 4.0-8.0 using carboxymethylcellulose as substrate. As shown in FIG. 6 A the broadest pH range (4.5-6.0) is that of the Acremonium EG—40/Cel45A protein, the optimum being at pH 5.5. The pH optima for the other heterologously produced endoglucanases are pH 5.0-5.5 and 6.0 for Acremonium EG—40_like/Cel45B and Thermoascus EG—28/Cel5A, respectively. The optimal temperature for enzymatic activity of these endoglucanases was determined at the temperature range of 50-85° C. as described above. The highest activity of the enzymes was determined to be at 75° C., 60° C., and 75° C. for the Acremonium EG—40/Cel45A, EG—40 like/Cel45B, and Thermoascus EG—28/Cel5A, respectively (FIG. 6 B).

[3] = Hydrolysis with endoglucanase preparations, spruce; type: biochemical; details: 48 h, 45° C., pH 5.0
Protocol: The preparations containing the endoglucanases were compared in hydrolysis studies mixed with the purified CBH/Cel7 and CBH/Cel6 enzymes on several pre-treated substrates. Culture filtrates of T. reesei, containing different cloned endoglucanase enzymes were obtained as described in Example 19. The enzymes were enriched by removing thermolabile proteins from the mixtures by a heat treatment (60° C., 2 h, pH 5) and the supernatant was used for the hydrolysis studies. In addition, pure T. reesei cellulases (purified as described by Suurnäkki et al., 2000) were used in the enzyme mixtures. The endoglucanases used in the experiment were:
Washed steam pre-treated spruce fibre (impregnation with 3% SO2 for 20 min, followed by steam pre-treatment at 215° C. for 5 min), dry matter 25.9% (SPRUCE).
The endoglucanases to be studied (dosage 840 nkat/g dry matter, based on endoglucanase activity against HEC according to IUPAC, 1987) were used either with cellobiohydrolases of T. reesei (CBHI/Cel7A, 8.1 mg/g d.m. and CBHII/Cel6A, 2.0 mg/g d.m.) or with Thermoascus aurantiacus Cel7A with genetically attached CBD of T. reesei (10.1 mg/g d.m.). Purified (Suurnäkki et al., 2000) EGI (Cel7B) and EGII (Cel5A) of T. reesei were also included in the experiments for comparison. All mixtures were supplemented with additional β-glucosidase from Novozym 188 (to make the total β-glucosidase dosage 560 nkat/g d.w., the relatively high dosage was used to compensate the differences in the background activities of the different EG preparations). Triplicate tubes were incubated in mixing at 45° C. for 48 h and reference samples with inactivated enzymes and corresponding substrates were prepared. The release of hydrolysis products was measured as reducing sugars with DNS method using glucose as standard (Table 31).

B1: Ta EG_28: endoglucanase of Thermoascus aurantiacus ALKO4242, gene Ta cel5A, amino acid SEQ ID NO: 10 (protein)
chain: MKLGSLVLALSAARLTLSAPLADRKQETKRAKVFQWFGSNESGAEFGSQNLPGVEGKDYIWPDPNTIDTLISKGMNIFRVPFMMERLVPNSMTGSPDPNYLADLIATVNAITQKGAYAVVDPHNYGRYYNSIISSPSDFQTFWKTVASQFASNPLVIFDTNNEYHDMDQTLVLNLNQAAIDGIRSAGATSQYIFVEGNSWTGAWTWTNVNDNMKSLTDPSDKIIYEMHQYLDSDGSGTSATCVSSTIGQERITSATQWLRANGKKGIIGEFAGGANDVCETAITGMLDYMAQNTDVWTGAIWWAAGPWWGDYIFSMEPDNGIAYQQILPILTPYL
For B1, the “pI of the purified protein” value [1] was “about 3.5”, the “Temperature of highest activity” value [2] was 75 °C and the “Hydrolysis products as reducing sugars, SPRUCE” value ([3]; with CBHI and CBHII of T. reesei) was 3.0 mg/mL. The “Hydrolysis products as reducing sugars, SPRUCE” value ([3]; with T. aurantiacus Cel7A + Tr CBD) was 1.5 mg/mL.
